Patent US20130011875A1

What was measured:
[1] = molecular target: recombinant human Met-granulocyte colony-stimulating factor (rHuMetGCSF) (Homo sapiens) (UniProt P09919); assay: cell-based or functional assay
[2] = molecular target: TNFRII-Fc (tumor necrosis factor receptor 2 ectodomain fused to Fc region of IgG1); assay: cell-based or functional assay
Sequence of TNFRII-Fc (tumor necrosis factor receptor 2 ectodomain fused to Fc region of IgG1) (chain, as listed by the source limits assumed): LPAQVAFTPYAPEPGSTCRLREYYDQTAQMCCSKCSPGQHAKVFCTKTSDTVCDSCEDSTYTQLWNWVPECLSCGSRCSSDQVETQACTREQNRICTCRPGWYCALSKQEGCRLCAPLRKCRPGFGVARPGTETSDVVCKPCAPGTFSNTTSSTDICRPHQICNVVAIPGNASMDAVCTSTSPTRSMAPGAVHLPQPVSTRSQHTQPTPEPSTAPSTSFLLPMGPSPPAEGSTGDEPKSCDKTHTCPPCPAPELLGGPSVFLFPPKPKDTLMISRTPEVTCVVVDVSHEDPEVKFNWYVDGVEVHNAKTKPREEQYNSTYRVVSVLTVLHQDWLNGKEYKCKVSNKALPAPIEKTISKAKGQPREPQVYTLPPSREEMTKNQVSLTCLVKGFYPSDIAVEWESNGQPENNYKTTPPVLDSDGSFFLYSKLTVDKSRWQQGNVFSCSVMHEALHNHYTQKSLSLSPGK

relative rhGCSF titer in fermentation supernatant (GCSF ELISA), vps10-1 deletion mutant yGLY9933 against parental strain yGLY8538 [1]: > 7 fold
Substance: Pichia pastoris vacuolar protein sorting receptor 10-1 (Vps10-1) (from UniProt C4R192 21-1542)
relative TNFRII-Fc titer in deep-well plate supernatant (ELISA), vps10-1 deletion mutants yGLY9992 and yGLY9993 against parental wild-type strain yGLY8292 [2]: 10 fold
